The values that follow come from IntAct's records for PubMed 24097060.

B1: Chromosome partition protein MukB (Escherichia coli (strain K12)), P22523 (parent)
chain: MIERGKFRSLTLINWNGFFARTFDLDELVTTLSGGNGAGKSTTMAAFVTALIPDLTLLHFRNTTEAGATSGSRDKGLHGKLKAGVCYSMLDTINSRHQRVVVGVRLQQVAGRDRKVDIKPFAIQGLPMSVQPTQLVTETLNERQARVLPLNELKDKLEAMEGVQFKQFNSITDYHSLMFDLGIIARRLRSASDRSKFYRLIEASLYGGISSAITRSLRDYLLPENSGVRKAFQDMEAALRENRMTLEAIRVTQSDRDLFKHLISEATNYVAADYMRHANERRVHLDKALEFRRELHTSRQQLAAEQYKHVDMARELAEHNGAEGDLEADYQAASDHLNLVQTALRQQEKIERYEADLDELQIRLEEQNEVVAEAIERQQENEARAEAAELEVDELKSQLADYQQALDVQQTRAIQYNQAIAALNRAKELCHLPDLTADCAAEWLETFQAKELEATEKMLSLEQKMSMAQTAHSQFEQAYQLVVAINGPLARNEAWDVARELLREGVDQRHLAEQVQPLRMRLSELEQRLREQQEAERLLADFCKRQGKNFDIDELEALHQELEARIASLSDSVSNAREERMALRQEQEQLQSRIQSLMQRAPVWLAAQNSLNQLSEQCGEEFTSSQDVTEYLQQLLEREREAIVERDEVGARKNAVDEEIERLSQPGGSEDQRLNALAERFGGVLLSEIYDDVSLEDAPYFSALYGPSRHAIVVPDLSQVTEHLEGLTDCPEDLYLIEGDPQSFDDSVFSVDELEKAVVVKIADRQWRYSRFPEVPLFGRAARESRIESLHAEREVLSERFATLSFDVQKTQRLHQAFSRFIGSHLAVAFESDPEAEIRQLNSRRVELERALSNHENDNQQQRIQFEQAKEGVTALNRILPRLNLLADDSLADRVDEIRERLDEAQEAARFVQQFGNQLAKLEPIVSVLQSDPEQFEQLKEDYAYSQQMQRDARQQAFALTEVVQRRAHFSYSDSAEMLSGNSDLNEKLRERLEQAEAERTRAREALRGHAAQLSQYNQVLASLKSSYDTKKELLNDLQRELQDIGVRADSGAEERARIRRDELHAQLSNNRSRRNQLEKALTFCEAEMDNLTRKLRKLERDYFEMREQVVTAKAGWCAVMRMVKDNGVERRLHRRELAYLSADDLRSMSDKALGALRLAVADNEHLRDVLRMSEDPKRPERKIQFFVAVYQHLRERIRQDIIRTDDPVEAIEQMEIELSRLTEELTSREQKLAISSRSVANIIRKTIQREQNRIRMLNQGLQNVSFGQVNSVRLNVNVRETHAMLLDVLSEQHEQHQDLFNSNRLTFSEALAKLYQRLNPQIDMGQRTPQTIGEELLDYRNYLEMEVEVNRGSDGWLRAESGALSTGEAIGTGMSILVMVVQSWEDESRRLRGKDISPCRLLFLDEAARLDARSIATLFELCERLQMQLIIAAPENISPEKGTTYKLVRKVFQNTEHVHVVGLRGFAPQLPETLPGTDEAPSQAS
partner: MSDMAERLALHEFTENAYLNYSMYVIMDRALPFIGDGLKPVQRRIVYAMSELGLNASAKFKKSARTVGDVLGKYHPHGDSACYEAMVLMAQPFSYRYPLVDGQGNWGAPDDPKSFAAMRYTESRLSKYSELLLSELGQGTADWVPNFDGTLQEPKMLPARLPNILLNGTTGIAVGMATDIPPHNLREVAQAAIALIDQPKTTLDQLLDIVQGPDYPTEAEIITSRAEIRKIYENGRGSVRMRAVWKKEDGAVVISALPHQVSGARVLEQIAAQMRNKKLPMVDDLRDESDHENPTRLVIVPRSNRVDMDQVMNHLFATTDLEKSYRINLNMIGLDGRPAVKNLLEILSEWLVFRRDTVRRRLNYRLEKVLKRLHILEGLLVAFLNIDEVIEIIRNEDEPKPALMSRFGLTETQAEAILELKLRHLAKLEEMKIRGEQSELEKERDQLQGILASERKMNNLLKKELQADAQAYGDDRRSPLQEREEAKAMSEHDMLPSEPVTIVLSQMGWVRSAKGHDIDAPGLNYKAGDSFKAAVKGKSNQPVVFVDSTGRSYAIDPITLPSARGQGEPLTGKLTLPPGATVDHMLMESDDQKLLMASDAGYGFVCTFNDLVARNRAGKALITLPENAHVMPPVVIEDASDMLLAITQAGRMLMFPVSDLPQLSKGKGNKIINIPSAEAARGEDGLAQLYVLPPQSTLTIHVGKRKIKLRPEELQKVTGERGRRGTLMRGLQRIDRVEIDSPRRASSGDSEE
B2: DNA topoisomerase 4 subunit A (Escherichia coli (strain K12)), P0AFI2 (parent)
chain: B1 partner
partner: B1 chain

Variants of B1 are the subject of the first assay. As to conditions: with parc_ecoli parC.
As to D692F, the “effect of a mutation on the interaction” value is reported as “decreasing interaction”.

The variants in another assay derive from B1. The settings on record: with parc_ecoli parC. This is another data set of the same source.
For D692F;D746R;E753R, the “effect of a mutation on the interaction” value was “disrupting interaction”.

A further assay covers variants of B2. The settings on record: with mukb_ecoli mukB.
In the case of R705D;R729D, the “effect of a mutation on the interaction” value is reported as “disrupting interaction”.
